These results are taken from publication PMC10311653.

In this test the target is wildtype (WT) human interleukin-1β (human) (UniProt P01584). Nature of the test: ELISA; antigen (100 ng) coated on the plate; scFv-mFc added in 3% skim milk in DPBST, 2 h at 37 °C; EC50.

B1: E64Kcr-H11-mFc (Fc fusion)
VH: EVQLQQSGAELVKPGASVRLSCTASGFNIKDYYMHWVKQRPEQGLEWIGWIDPENGDTEYAPKFQGKATMTADTSSNTAYLQLSSLTSEDTAVYYCNGYDDYWGQGTTLTVSS
VL: DIVMTQSQKFMSTSVGDRVSVTCKASQNVGTDVAWYQQKPGQSPKALIYSASYHYSGVPDRFTGTGSGTDFTLTISNVRSEDLAEYFCQQYNSYPYTFGGGTKLEIK
B1 came in with an EC50 of 17.4 nM.
